Source: patent publication US20140234211A1 (INVECTORS S R L, published 2014)
Y(DOTA) = not defined here; Y(DTPA) = not defined here; AhOh = not defined here; Peg27 = L1, H-Peg27-OH

B1: monomer of formula (I) of example 1.g, H-L1-Y(C)-L2-P: P = Gln-Trp-Ala-Val-Gly-His-Leu-Nle-NH2, C = DOTA, L1 = H-Peg27-OH, L2 = H-AhOh-OH, in liposomes (peptide)
peptide: QWAVGHLX
modifications: not fully specified; Nle at position 8; C-terminal amide (NH2); N-terminal amino group amide-linked to spacer L2 (H-AhOh-OH)
notes: Chelating agent DOTA; Tested in 111In-labelled liposomes
B2: monomer of formula (I) of example 1.a, H-L1-Y(C)-L2-P: P = Gln-Trp-Ala-Val-Gly-His-Leu-Nle-NH2, C = DTPA, L1 = H-Peg27-OH, L2 = H-AhOh-OH, in liposomes (peptide)
peptide: QWAVGHLX
modifications: not fully specified; Nle at position 8; C-terminal amide (NH2); N-terminal amino group amide-linked to spacer L2 (H-AhOh-OH) of the lipid/DTPA monomer
notes: also called monomer 1a
B3: monomer of formula (I) of example 1.k, H-L1-Y(C)-L2-P: P = Gln-Trp-Ala-Val-Gly-His-Leu-Met-NH2, C = DOTA, L1 = H-Peg27-OH, L2 = H-AhOh-OH, in liposomes (peptide)
peptide: {Peg27-Y(DOTA)-AhOh}-QWAVGHLM-NH2
modifications: reading uncertain; also: in liposomes
notes: as for B1

These binders were tested against T1, GRP receptor overexpressed on PC-3 cells (UniProt P30550 1-384) (assay: 111In-labelled liposomes on PC-3 cells overexpressing the GRP receptor; cell-bound radioactivity by gamma counting).
T1 construct: whole, on cells; also called GRP receptors
Experimental: On the day of the experiment, the cell medium is removed, the cells are washed two times with fresh medium (DMEM with 1% of foetal bovine serum, pH 7.4) and incubated for at least one hour at 37° C. The cells were incubated (in triplicate) with 100 μL of liposomes labelled with indium 111/natural indium at various times (30 mins, 1 hour, 2 hours, 4 hours). The final volume is 1 mL and the final liposomal concentration is 2*10⁻⁴M. At the end of the incubation, the cell medium, containing the unbound radioactivity, is separated from the cells.
The radioactivity bound to the cells was recovered by tryptic digestion after two rapid washes with […] PBS followed by 1 hour of incubation and measured by gamma counting. The difference in binding of the liposomes containing H-L₁-Y(C)-L₂-P with the bombesin peptide, compared to when the peptide is absent, is clearly visible in FIG. 2. Experiments were conducted with various type (1) monomers in the liposomal formulation, varying the peptide sequences and the chelating agent, such as those described in examples 1a-1o. No substantial differences are found in the target selective binding properties. For example, in FIG. 2 the result for the liposomes containing monomer 1a is reported.

T1 sequence (P30550 whole entry): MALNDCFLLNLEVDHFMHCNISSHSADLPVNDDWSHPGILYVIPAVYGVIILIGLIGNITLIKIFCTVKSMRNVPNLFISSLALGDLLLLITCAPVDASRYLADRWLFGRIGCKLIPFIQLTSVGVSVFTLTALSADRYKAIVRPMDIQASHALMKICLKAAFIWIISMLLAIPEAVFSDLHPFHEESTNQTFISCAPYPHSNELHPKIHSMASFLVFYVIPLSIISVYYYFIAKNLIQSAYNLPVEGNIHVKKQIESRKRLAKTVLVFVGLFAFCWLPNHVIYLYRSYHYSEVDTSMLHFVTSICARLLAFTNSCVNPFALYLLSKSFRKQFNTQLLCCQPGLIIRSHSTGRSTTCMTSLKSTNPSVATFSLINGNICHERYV

| binding result | Binder |
| --- | --- |
| binds | B1 |
| binds | {Peg27-Y(DTPA)-AhOh}-QWAVGHLM-NH2 (reading uncertain; also: in liposomes, Tested in 111In-labelled liposomes) |
| binds | B2 |
| binds | B3 |
